In patent publication US20160319265:

Test system: TEV substrate

With AcTEV protease the TEV Substrate Cleavage (%), 30 minute was 73.9%, the TEV Substrate Cleavage (%), 60 minute was 91.6% and the TEV Substrate Cleavage (%), 120 minute was 97.2%.
